# From patent US20230174596A1 (published 2023)
# Where two headings read alike, the source gives them in different places.
# T1: hVEGF-A Y21A (human, UniProt P15692 34-135)
# T1 chain: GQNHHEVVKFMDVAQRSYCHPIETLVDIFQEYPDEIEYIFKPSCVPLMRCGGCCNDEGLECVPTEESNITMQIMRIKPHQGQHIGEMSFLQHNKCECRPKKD
# T2: hVEGF-A K48A (human, UniProt P15692 34-135)
# T2 chain: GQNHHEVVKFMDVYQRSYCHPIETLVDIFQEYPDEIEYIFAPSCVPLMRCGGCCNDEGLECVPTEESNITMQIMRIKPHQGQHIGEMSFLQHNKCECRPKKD
# T3: hVEGF-A Q89A (human, UniProt P15692 34-135)
# T3 chain: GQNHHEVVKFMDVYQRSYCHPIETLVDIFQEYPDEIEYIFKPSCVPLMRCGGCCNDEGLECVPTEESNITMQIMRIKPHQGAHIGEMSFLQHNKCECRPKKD
# T4: hVEGF-A (8-109) (human, UniProt P15692 214-315)
# T4 construct: residue numbers count on mature VEGF-A; dimer
# T4 sequence (looked up): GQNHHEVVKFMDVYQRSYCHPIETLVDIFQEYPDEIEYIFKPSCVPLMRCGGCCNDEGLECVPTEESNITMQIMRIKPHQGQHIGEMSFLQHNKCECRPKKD
# T5: rat VEGF-A (rat, UniProt P16612-2 27-190, limits assumed)
# T5 sequence (looked up): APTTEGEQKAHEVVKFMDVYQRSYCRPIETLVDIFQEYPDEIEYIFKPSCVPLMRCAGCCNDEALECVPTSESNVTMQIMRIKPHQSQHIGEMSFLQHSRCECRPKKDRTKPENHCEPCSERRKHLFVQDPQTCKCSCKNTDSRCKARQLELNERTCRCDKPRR
# T6: mVEGF (mouse, UniProt Q00731-2 27-190, limits assumed)
# T6 sequence (looked up): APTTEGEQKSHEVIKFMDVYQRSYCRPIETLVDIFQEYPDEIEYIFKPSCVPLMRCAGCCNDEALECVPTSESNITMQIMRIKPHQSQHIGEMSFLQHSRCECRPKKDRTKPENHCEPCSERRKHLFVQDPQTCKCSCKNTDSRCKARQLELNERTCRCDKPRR
# T7: human VEGF-A (human, UniProt P15692-4 34-135, limits assumed)
# T7 sequence (looked up): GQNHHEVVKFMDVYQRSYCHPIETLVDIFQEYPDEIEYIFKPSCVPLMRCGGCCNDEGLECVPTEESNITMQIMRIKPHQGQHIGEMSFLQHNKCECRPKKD
# T8: human VEGF-A (human), P15692
# T8 chain: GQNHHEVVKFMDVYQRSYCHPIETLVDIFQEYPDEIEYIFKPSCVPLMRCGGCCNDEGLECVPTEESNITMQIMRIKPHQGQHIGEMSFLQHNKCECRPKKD
# What was measured:
# hVEGF-A Y21A = molecular target: T1, hVEGF-A Y21A; experiment: SPR
# hVEGF-A K48A = molecular target: T2, hVEGF-A K48A; experiment: SPR
# hVEGF-A Q89A = molecular target: T3, hVEGF-A Q89A; experiment: SPR
# hVEGF-A (8-109) [1] = molecular target: T4, hVEGF-A (8-109); experiment: SPR
# Protocol: Depending on the format of the assay either a streptavidin sensor (SA) or a dextran-coated (CM5) sensor was utilized as described below.
# Reaction was then quenched by addition of 10 molar excess of Glycine pH 8.0 and the sample was buffer exchanged into PBS using an Amicon 0.5 mL 3000 MWCO ultra-centrifugal filters (EMD Millipore). The biotinylation state of the protein was verified by LC-MS analysis. Biotinylated VEGF-A was then captured on the surface until a resonance unit (RU) signal of about −0.400. For immobilization of VEGF-A on CM5 sensor, the surface was first activated with a mixture of N-ethyl-N′-(3-dimethylaminopropyl)carbodiimide hydrochloride and N-hydroxysuccinimide (EDC/NHS) according to the supplier instructions. VEGF-A was then diluted into coupling buffer (0.1 M Acetate Buffer, pH 5.0) and injected until the signal reached about −0.400 RU followed by a wash with 1 M ethanolamine pH 8.0 to quench remaining activated sites.
# hVEGF-A (8-109) [2] = molecular target: T4, hVEGF-A (8-109); experiment: spot phage ELISA
# rat VEGF-A = molecular target: T5, rat VEGF-A; experiment: cell-based or functional assay
# mVEGF = molecular target: T6, mVEGF; experiment: cell-based or functional assay
# human VEGF-A = molecular target: T7, human VEGF-A; experiment: cell-based or functional assay
# [3] = molecular target: T8, human VEGF-A (human), P15692; experiment: SPR
binder,measurement,setting,value
"GCDVMQPYWGCKQDSDCLAGCVCHWYNSCG (designed binder, also called EM63) [VEGF_CKP9.63]",Kd,hVEGF-A Y21A,0.585 µM
same,Kd,hVEGF-A K48A,0.0284 µM
same,Kd,hVEGF-A Q89A,2 µM
"GCDVMQPYWGCEMDFDCLAGCVCHWYNSCG (designed binder, also called L2.9.63.44) [VEGF_CKP9.63.44]",Kd,hVEGF-A (8-109) [1],0.0012 µM
GCQLMQPFWGCKQDSDCLAGCVCHWYQSCG (designed binder) [VEGF_CKP9],ELISA,hVEGF-A (8-109) [2],0.4
same,S/N,hVEGF-A (8-109) [2],7.4
same,ELISA,hVEGF-A (8-109) [2]; record 2,0.9
same,S/N,hVEGF-A (8-109) [2]; record 2,11.6
same,ELISA,hVEGF-A (8-109) [2]; record 3,3.3
same,S/N,hVEGF-A (8-109) [2]; record 3,36
same,"Cellular Assay IC50, rVEGF (50 ng/ml)",rat VEGF-A,1 µM
same,"Cellular Assay IC50, mVEGF (50 ng/ml)",mVEGF,10 µM
same,"Cellular Assay IC50, hVEGF-A (25 ng/ml)",human VEGF-A,12 µM
"GCDVMQPYWGCGPDIDCLAGCVCHWYNSCG (designed binder, also called L2.9.63.12) [VEGF_CKP9.63.12]",Kd,hVEGF-A Y21A,0.00984 µM
same,Kd,hVEGF-A K48A,0.00033 µM
same,Kd,hVEGF-A Q89A,0.0365 µM
GCDVMQPYWGCGPDIDCLSNCICHWYNSCG (designed binder) [VEGF_CKP9.63.12.12],Cellular IC50,human VEGF-A,0.00056 µM
same,fold improvement relative to variant 9.54.90 (cellular IC50),human VEGF-A,2.41 fold
same,Cellular IC50,human VEGF-A; record 2,0.0005 µM
GCNIMLPFWGCGRDFECFINCICQYYQSCG (designed binder) [VEGF_CKP9.54.90.44],Cellular IC50,human VEGF-A,0.00116 µM
same,fold improvement relative to variant 9.54.90 (cellular IC50),human VEGF-A,1.16 fold
"GCNIMLPFWGCGRDFECLAGCVCQYYQSCG (designed binder, modifications not checked) [VEGF_CKP9.54.90-Alkyn]",Kd,[3],0.00049 µM
CNIMLPYWGCGRDFECLAGCVCQYYQSC (designed binder) [VEGF_CKP9.54.90 F7Y Δ2G],Cellular IC50,human VEGF-A,0.00301 µM
same,fold improvement relative to variant 9.54.90 (cellular IC50),human VEGF-A,0.44 fold
GCNIMLPYWGCGRDFECMNQCICQYYQSCG (designed binder) [VEGF_CKP9.54.90.13.F8Y],Cellular IC50,human VEGF-A,0.00202 µM
same,fold improvement relative to variant 9.54.90 (cellular IC50),human VEGF-A,0.67 fold
GCTTPWPPHEIMCKQDSDCLAGCVCGPNGFCG (designed binder) [VEGF_CKP12],ELISA,hVEGF-A (8-109) [2],3.5
same,S/N,hVEGF-A (8-109) [2],55.2
same,"Cellular Assay IC50, rVEGF (50 ng/ml)",rat VEGF-A,1220 µM
same,"Cellular Assay IC50, mVEGF (50 ng/ml)",mVEGF,243 µM
same,"Cellular Assay IC50, hVEGF-A (25 ng/ml)",human VEGF-A,102 µM
GCNIMLPYWGCGRDFECFYECICQYYQSCG (designed binder) [VEGF_CKP9.54.90.62.F8Y],Cellular IC50,human VEGF-A,0.00114 µM
same,fold improvement relative to variant 9.54.90 (cellular IC50),human VEGF-A,1.18 fold
GCRDLDVKWDCKQDSDCLAGCFCQYYSSCG (designed binder) [VEGF_CKP10],ELISA,hVEGF-A (8-109) [2],3.2
same,S/N,hVEGF-A (8-109) [2],43.7
same,"Cellular Assay IC50, rVEGF (50 ng/ml)",rat VEGF-A,18 µM
same,"Cellular Assay IC50, hVEGF-A (25 ng/ml)",human VEGF-A,45 µM
GCPTTRFKQYCKQDSDCLAGCVCGPNGFCG (designed binder) [VEGF_CKP6],ELISA,hVEGF-A (8-109) [2],3.5
same,S/N,hVEGF-A (8-109) [2],51.9
same,"Cellular Assay IC50, rVEGF (50 ng/ml)",rat VEGF-A,711 µM
same,"Cellular Assay IC50, mVEGF (50 ng/ml)",mVEGF,169 µM
same,"Cellular Assay IC50, hVEGF-A (25 ng/ml)",human VEGF-A,47 µM
GCQDPTFNWALYCKQDSDCLAGCVCQMYQSCG (designed binder) [VEGF_CKP7],ELISA,hVEGF-A (8-109) [2],3.4
same,S/N,hVEGF-A (8-109) [2],54.5
same,ELISA,hVEGF-A (8-109) [2]; record 2,0.1
same,S/N,hVEGF-A (8-109) [2]; record 2,1.3
same,"Cellular Assay IC50, rVEGF (50 ng/ml)",rat VEGF-A,7 µM
same,"Cellular Assay IC50, mVEGF (50 ng/ml)",mVEGF,39 µM
same,"Cellular Assay IC50, hVEGF-A (25 ng/ml)",human VEGF-A,18 µM
GCNIMLPFWGCGRDFECFYECICQYYQSCG (designed binder) [VEGF_CKP9.54.90.62],Cellular IC50,human VEGF-A,0.00092 µM
same,fold improvement relative to variant 9.54.90 (cellular IC50),human VEGF-A,1.47 fold
GCNIMLPFWGCGRDFECMEQCICQYYQSCG (designed binder) [VEGF_CKP9.54.90.67],Cellular IC50,human VEGF-A,0.0011 µM
same,fold improvement relative to variant 9.54.90 (cellular IC50),human VEGF-A,1.23 fold
same,Cellular IC50,human VEGF-A; record 2,0.001 µM
"GCDVMQPYWGCGENFLCLAGCVCHWYNSCG (designed binder, also called L2.9.63.1) [VEGF_CKP9.63.1]",Kd,hVEGF-A (8-109) [1],0.0058 µM
"GCDVMQPYWGCGESLSCLAGCVCHWYNSCG (designed binder, also called L2.9.63.69) [VEGF_CKP9.63.69]",Kd,hVEGF-A (8-109) [1],0.0069 µM
GCNIMLPFWGCGRDFECLAGCVCQYYQSCG (designed binder) [VEGF_CKP9.54.90],Kd,hVEGF-A Y21A,0.0035 µM
same,Kd,hVEGF-A K48A,0.00019 µM
same,Kd,hVEGF-A Q89A,0.0088 µM
"GCNIMLPFWGCKQDSDCLAGCVCQYYQSCG (designed binder, also called EM54) [VEGF_CKP9.54]",Kd,hVEGF-A Y21A,0.317 µM
same,Kd,hVEGF-A K48A,0.022 µM
same,Kd,hVEGF-A Q89A,1.88 µM
"GCDVMQPYWGCGRDMDCLAGCVCHWYNSCG (designed binder, also called L2.9.63.27) [VEGF_CKP9.63.27]",Kd,hVEGF-A (8-109) [1],0.0014 µM
